Consider 3 substances from PMC8928829.

Sequence of NIH-CoVnb-112 (heavy, as listed by the source): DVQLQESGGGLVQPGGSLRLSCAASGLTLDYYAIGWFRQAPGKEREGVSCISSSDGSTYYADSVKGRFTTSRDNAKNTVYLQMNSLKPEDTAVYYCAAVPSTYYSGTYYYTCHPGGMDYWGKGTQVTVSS

The experiment addresses NIH-CoVnb-112. Briefly: BLI. In general terms: In BLI a coated tip is dipped into the sample, and binding shifts an interference pattern.
“SARS-CoV-2 RBD K417N (from UniProt P0DTC2) (domain or fragment)”: the dissociation constant Kd (usually the concentration at which binding is half-saturated) turned out to be 1.42 nM. “SARS-CoV-2 RBD L452R (from UniProt P0DTC2) (domain or fragment)” yielded an equilibrium dissociation constant (Kd) of 4.88 nM. Regarding “SARS-CoV-2 RBD T478K (from UniProt P0DTC2) (domain or fragment)”, the equilibrium dissociation constant (Kd) amounted to 0.497 nM.
